One experiment concerns the target p5E8G1N-. Put plainly: apparent Kd.
For another experiment, the target named is p5E8G1. The experiment can be described thus: apparent Kd.
In experiment [1] the target is T1, human CD23 (human, UniProt P06734 1-321).
T1 chain: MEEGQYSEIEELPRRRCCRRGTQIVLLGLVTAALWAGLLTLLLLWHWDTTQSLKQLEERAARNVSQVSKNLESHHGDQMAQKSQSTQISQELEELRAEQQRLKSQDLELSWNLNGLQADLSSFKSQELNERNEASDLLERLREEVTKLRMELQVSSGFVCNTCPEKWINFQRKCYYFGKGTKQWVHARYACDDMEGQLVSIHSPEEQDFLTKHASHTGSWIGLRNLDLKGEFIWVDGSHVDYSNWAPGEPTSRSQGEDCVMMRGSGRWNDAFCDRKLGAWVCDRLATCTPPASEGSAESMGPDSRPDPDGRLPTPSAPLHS
Put plainly: apparent Kd.

Experiment [2] has as its target T1, human CD23. Put plainly: apparent Kd; replicate 1.
Experiment [3] addresses T1, human CD23. The experiment can be described thus: apparent Kd; replicate 2.
Experiment [4] addresses T1, human CD23. Put plainly: apparent Kd; replicate 4.
Experiment [5] addresses T1, human CD23. The experiment can be described thus: apparent Kd; replicate 3.

Our source for the Kd values is patent US20050054833A1 (published 2005).

B1: CD23 (receptor)
chain: MEEGQYSEIEELPRRRCCRRGTQIVLLGLVTAALWAGLLTLLLLWHWDTTQSLKQLEERAARNVSQVSKNLESHHGDQMAQKSQSTQISQELEELRAEQQRLKSQDLELSWNLNGLQADLSSFKSQELNERNEASDLLERLREEVTKLRMELQVSSGFVCNTCPEKWINFQRKCYYFGKGTKQWVHARYACDDMEGQLVSIHSPEEQDFLTKHASHTGSWIGLRNLDLKGEFIWVDGSHVDYSNWAPGEPTSRSQGEDCVMMRGSGRWNDAFCDRKLGAWVCDRLATCTPPASEGSAESMGPDSRPDPDGRLPTPSAPLHS
As to B1, the Kd in the experiment with p5E8G1N- and with p5E8G1 was 0.7 nM in each case.

B2: PRIMATIZED antibody p5E8G4PN- (antibody, V domains shown)
VH: EVQLVESGGGLAKPGGSLRLSCAASGFRFTFNNYYMDWVRQAPGQGLEWVSRISSSGDPTWYADSVKGRFTISRENAKNTLFLQMNSLRAEDTAVYYCASLTTGSDSWGQGVLVTVSS
VL: DIQMTQSPSSLSASVGDRVTITCRASQDIRYYLNWYQQKPGKAPKLLIYVASSLQSGVPSRFSGSGSGTEFTLTVSSLQPEDFATYYCLQVYSTPRTFGQGTKVEIK
As for B2, the Kd with human CD23 [1] is 0.3 nM.

B3: PRIMATIZED antibody p5E8G4P (antibody, V domains shown)
VH: EVQLVESGGGLAKPGGSLRLSCAASGFRFTFNNYYMDWVRQAPGQGLEWVSRISSSGDPTWYADSVKGRFTISRENANNTLFLQMNSLRAEDTAVYYCASLTTGSDSWGQGVLVTVSS
VL: DIQMTQSPSSLSASVGDRVTITCRASQDIRYYLNWYQQKPGKAPKLLIYVASSLQSGVPSRFSGSGSGTEFTLTVSSLQPEDFATYYCLQVYSTPRTFGQGTKVEIK
modifications: N-linked oligosaccharide at the asparagine of the heavy chain variable region glycosylation site (Kabat 75)
Consider B3, for which the Kd with human CD23 [2] came out at 0.3 nM; with human CD23 [3] it was 1 nM.

B4: primate anti-human CD23 monoclonal antibody 5E8 (antibody, V domains shown)
VH: EVQLVESGGGLAKPGGSLRLSCAASGFRFTFNNYYMDWVRQAPGQGLEWVSRISSSGDPTWYADSVKGRFTISRENANNTLFLQMNSLRAEDTAVYYCASLTTGSDSWGQGVLVTVSS
VL: DIQMTQSPSSLSASVGDRVTITCRASQDIRYYLNWYQQKPGKAPKLLIYVASSLQSGVPSRFSGSGSGTEFTLTVSSLQPEDFATYYCLQVYSTPRTFGQGTKVEIK
modifications: N-linked oligosaccharide at the asparagine of the heavy chain variable region glycosylation site (Kabat 75)
B4: the Kd with human CD23 [2] is 0.5 nM; with human CD23 [3], 1.5 nM; with human CD23 [4], 4.4 nM; in the experiment with human CD23 [5], 1.8 nM.
